According to paper PMC2930322 (PLoS ONE, 2010):

Molecular target: the molecule itself
Experiment: atomic force microscopy; assembled 1 h at 37°C in 25 mM Tris-HCl (pH 7.5) with NaCl (vimentin 0.1 mg/ml, 125 mM NaCl; K5/K14 0.1 mg/ml, 50-100 mM NaCl), adsorbed to mica, flushed with water, dried, imaged in air in acoustic mode

B1: Human K5/K14 heterodimers (complex)
chain 1: MSRQSSVSFRSGGSRSFSTASAITPSVSRTSFTSVSRSGGGGGGGFGRVSLAGACGVGGYGSRSLYNLGGSKRISISTSGGSFRNRFGAGAGGGYGFGGGAGSGFGFGGGAGGGFGLGGGAGFGGGFGGPGFPVCPPGGIQEVTVNQSLLTPLNLQIDPSIQRVRTEEREQIKTLNNKFASFIDKVRFLEQQNKVLDTKWTLLQEQGTKTVRQNLEPLFEQYINNLRRQLDSIVGERGRLDSELRNMQDLVEDFKNKYEDEINKRTTAENEFVMLKKDVDAAYMNKVELEAKVDALMDEINFMKMFFDAELSQMQTHVSDTSVVLSMDNNRNLDLDSIIAEVKAQYEEIANRSRTEAESWYQTKYEELQQTAGRHGDDLRNTKHEISEMNRMIQRLRAEIDNVKKQCANLQNAIADAEQRGELALKDARNKLAELEEALQKAKQDMARLLREYQELMNTKLALDVEIATYRKLLEGEECRLSGEGVGPVNISVVTSSVSSGYGSGSGYGGGLGGGLGGGLGGGLAGGSSGSYYSSSSGGVGLGGGLSVGGSGFSASSGRGLGVGFGSGGGSSSSVKFVSTTSSSRKSFKS
chain 2: MTTCSRQFTSSSSMKGSCGIGGGIGGGSSRISSVLAGGSCRAPSTYGGGLSVSSSRFSSGGACGLGGGYGGGFSSSSSSFGSGFGGGYGGGLGAGLGGGFGGGFAGGDGLLVGSEKVTMQNLNDRLASYLDKVRALEEANADLEVKIRDWYQRQRPAEIKDYSPYFKTIEDLRNKILTATVDNANVLLQIDNARLAADDFRTKYETELNLRMSVEADINGLRRVLDELTLARADLEMQIESLKEELAYLKKNHEEEMNALRGQVGGDVNVEMDAAPGVDLSRILNEMRDQYEKMAEKNRKDAEEWFFTKTEELNREVATNSELVQSGKSEISELRRTMQNLEIELQSQLSMKASLENSLEETKGRYCMQLAQIQEMIGSVEEQLAQLRCEMEQQNQEYKILLDVKTRLEQEIATYRRLLEGEDAHLSSSQFSSGSQSSRDVTSSSRQIRTKVMDVHDGKVVSTHEQVLRTKN
notes: keratin K5 (keratin, type II cytoskeletal 5), human; keratin K14 (keratin, type I cytoskeletal 14), human; Named only as a heterodimer; the two chains are never tested against each other or one by one; also called keratin K5/K14; K5/K14 subunits; source: expressed and purified as described [17]; stored in 6 M urea, dialysed into 2 mM Tris-HCl (pH 9), 1 mM DTT
B1: binds.
